{"source": "paper PMC3000319", "about": "(PLoS ONE, 2010)", "proteins": {"B1": {"name": "recombinant ovine PrP (25–233) (natural protein)", "chain": "not shown"}}, "molecular_target": "the molecule itself", "test": "AUC"}
{"protein": "B1", "values": [{"measurement": "stoichiometry N", "value": 2}]}
